Consider six molecules from US20250011456A1, “ANTIBODIES AGAINST CD14 AND USES THEREOF” (Villanelle Life Science Inc, priority 2023, published 2025).

Assay [1] relates to CD14 positive recurrent bladder cancer patient-derived xenograft (PDX). The experiment in a line: Anti-CD14 IgG1/IgG4 with or without cisplatin, tumor treatment in PDX mice (tumor length, width, volume, tumor weight; Example 6). It counts as in vivo. As to conditions: for Tumor Length / Tumor Volume / Tumor Width: IgG4 5 mg/kg i.v. (Ex. 2), PDX mice 1-6. The source says: After removing the primary tumor tissue from the patient, the tissue was temporarily placed in a complete culture medium containing RPMI1640 (Gibco Roswell Park Memorial Institute 1640 Media)+PS (penicillin and streptomycin)+10% FBS (Fetal bovine serum). The tissue was then transported to a sterile operating room within an SPF-grade (Specific Pathogen Free) animal facility. The tumor tissue was cut to an appropriate size (5 millimeters (mm) in diameter). Severely immunodeficient NSG (NOD scid gamma mouse) mice were anesthetized using an isoflurane respirator. The tumor was transplanted subcutaneously into the right rib area through surgery. When the tumor volume reached 1 cm^3, it was passaged following the same procedure, and after expanding for three generations, the tumor became stable for use in formal experiments. During the experiment, passaging and expansion were performed as needed. When the tumor volume reached 100 mm^3, the mice were divided into groups according to the experimental requirements and treated with drugs.
The IgG4 tested is the original version of Atibuclimab.
Drug administration on the PDX mice was performed intravenously.

Assay [2] concerns the target T1, human CD14 antigen (B294801, histidine tagged) (Homo sapiens, UniProt P08571).
T1 construct: His; purchased Shanghai BaiYing Biotechnology Co., Ltd B294801 (Batch number 20200518A22)
T1 sequence (P08571 20-345): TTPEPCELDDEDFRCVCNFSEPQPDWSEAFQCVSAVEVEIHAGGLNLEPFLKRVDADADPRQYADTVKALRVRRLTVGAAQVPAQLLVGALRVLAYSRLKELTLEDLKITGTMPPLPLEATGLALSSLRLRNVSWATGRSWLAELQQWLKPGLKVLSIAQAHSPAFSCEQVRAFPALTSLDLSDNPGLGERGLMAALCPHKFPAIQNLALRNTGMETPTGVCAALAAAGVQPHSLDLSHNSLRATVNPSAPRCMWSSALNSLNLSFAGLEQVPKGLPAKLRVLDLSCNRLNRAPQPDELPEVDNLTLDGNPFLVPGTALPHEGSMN
As to the kind of experiment: Biacore 8K kinetic and affinity test of antibodies without PTM sites (Example 9). As to conditions: for Koff / kon (1:1 binding): Biacore 8K, analyte B294801 0.1953125-25 nM, capture conc. 1 μg/mL. It counts as binding. How it is done:
Experimental reagents and consumables included cell culture fluid, electroporation buffer, CHO cells, 1 mL electroporation cuvette, Protein A chip (Cytiva, 29127556), various sizes of shake flasks, and various sizes of pipettes. Main instruments and equipment included a shaker (Taicang Huamei), centrifuge (Baiyang), ultrapure water system (Millipore), constant temperature incubator (BLUE PARD), electroporator, water bath, Biacore 8K (Cytiva), and ELISA system (Molecular Devices).
The antigen used for the binding affinity measurements is B294801. This antigen is a human CD14 antigen that is histidine tagged. D6DD3D001 is a mouse antibody, and MPDDAD001-MPDDAD005 are humanized antibodies. The antibodies are recombinant, human (hFc Tag). Selected parameters of the experimental samples are shown in Table 9-1, with MW referring to molecular weight in kDa.
The Biacore 8K platform was used to test the kinetic and affinity properties of the antibody, operating according to system instructions and indications.
Results of Affinity Detection. The affinity of the six antibodies was measured at saturation concentration. For the experiments, the analyte solution comprises the B294801 antigen with an analyte concentration of 0.1953125 nM, 0.390625 nM, 0.78125 nM, 1.5625 nM, 3.125 nM, 6.25 nM, 12.5 nM, and 25 nM. Change factor is described above.
Background: In SPR one partner is held on a chip, and binding of the other changes the refractive index at the surface.

Changes are numbered by the printed parent chain. “And” between values parts separate entries of the source, which are not always exact repeats. Equal values may be shown once.

B1: IgG4: The IgG4 tested is the original version of Atibuclimab (anti-CD14 antibody) (antibody, V domains shown)
VH: DVQLQQSGPGLVKPSQSLSLTCTVTGYSITSDSAWNWIRQFPGNRLEWMGYISYSGSTSYNPSLKSRISITRDTSKNQFFLQLNSVTTEDTATYYCVRGLRFAYWGQGTLVTVSS
VL: DIVLTQSPASLAVSLGQRATISCRASESVDSYVNSFLHWYQQKPGQPPKLLIYRASNLQSGIPARFSGSGSRTDFTLTINPVEADDVATYYCQQSNEDPYTFGGGTKLEIK
modifications: IgG4 constant regions
As for B1, the “Tumor Length” value in assay [1] (Day 0, 5 mg/kg) was 6.27 mm and 8.76 mm and 6.59 mm and 7.42 mm and 6.33 mm and 6.02 mm; in assay [1] (Day 4, 5 mg/kg), 6.09 mm and 6.4 mm and 7.29 mm and 6.97 mm and 6.34 mm and 6.38 mm; in assay [1] (Day 7, 5 mg/kg) it was 7.28 mm and 7.86 mm and 8.67 mm and 6.99 mm and 8.27 mm; in assay [1] (Day 11, 5 mg/kg), 8.11 mm and 8.29 mm and 6.98 mm and 8.22 mm and 7.53 mm and 8.23 mm; in assay [1] (Day 14, 5 mg/kg), 8.23 mm and 8.98 mm and 8.47 mm and 7.26 mm and 9.3 mm and 9.49 mm; in assay [1] (Day 18, 5 mg/kg), 8.68 mm and 10.39 mm and 9.13 mm and 9.05 mm and 9.45 mm and 9.95 mm. Further, the “Tumor Length” value is 10.54 mm and 10.95 mm and 9.73 mm and 10.89 mm and 10.09 mm and 10.17 mm in assay [1] (Day 21, 5 mg/kg); 12.37 mm and 11.71 mm and 10.99 mm and 12.36 mm and 12.63 mm in assay [1] (Day 25, 5 mg/kg); 11.25 mm and 11.92 mm and 12.46 mm and 12.52 mm and 12.24 mm and 12.94 mm in assay [1] (Day 28, 5 mg/kg). Also, the “Tumor Volume” value in assay [1] (Day 0, 5 mg/kg) is 71.87 mm^3 and 99.55 mm^3 and 90.05 mm^3 and 93.23 mm^3 and 102.04 mm^3 and 77.19 mm^3; in assay [1] (Day 4, 5 mg/kg), 113.97 mm^3 and 113.45 mm^3 and 97.29 mm^3 and 124.83 mm^3 and 104.42 mm^3 and 77.89 mm^3; in assay [1] (Day 7, 5 mg/kg), 180.86 mm^3 and 117.78 mm^3 and 198.12 mm^3 and 140.77 mm^3 and 173.66 mm^3 and 136.21 mm^3; in assay [1] (Day 14, 5 mg/kg), 222.04 mm^3 and 307.58 mm^3 and 251.33 mm^3 and 190.45 mm^3 and 320.90 mm^3 and 371.60 mm^3; in assay [1] (Day 18, 5 mg/kg) it was 324.35 mm^3 and 536.16 mm^3 and 383.59 mm^3 and 344.61 mm^3 and 334.97 mm^3 and 363.06 mm^3; in assay [1] (Day 21, 5 mg/kg), 450.77 mm^3 and 632.99 mm^3 and 424.46 mm^3 and 505.72 mm^3 and 463.61 mm^3 and 487.44 mm^3. In addition, the “Tumor Volume” value in assay [1] (Day 25, 5 mg/kg) is 724.64 mm^3 and 746.92 mm^3 and 567.12 mm^3 and 525.64 mm^3 and 639.10 mm^3 and 698.50 mm^3; in assay [1] (Day 28, 5 mg/kg) it was 728.02 mm^3 and 719.55 mm^3 and 840.02 mm^3 and 932.53 mm^3 and 835.40 mm^3 and 919.10 mm^3. The “Tumor Width” value was 4.68 mm and 4.66 mm and 5.11 mm and 4.9 mm and 5.55 mm and 4.95 mm in assay [1] (Day 0, 5 mg/kg); 5.98 mm and 5.82 mm and 5.05 mm and 5.85 mm and 5.61 mm and 4.83 mm in assay [1] (Day 4, 5 mg/kg); 6.89 mm and 5.56 mm and 6.94 mm and 5.57 mm and 5.61 mm in assay [1] (Day 7, 5 mg/kg); 5.81 mm and 7.35 mm and 5.72 mm and 8.04 mm and 7.15 mm and 7.08 mm in assay [1] (Day 11, 5 mg/kg); 7.18 mm and 8.09 mm and 7.53 mm and 7.08 mm and 8.12 mm and 8.65 mm in assay [1] (Day 14, 5 mg/kg); 8.45 mm and 9.93 mm and 8.96 mm and 8.53 mm and 8.23 mm and 8.35 mm in assay [1] (Day 18, 5 mg/kg). For the same molecule, the “Tumor Width” value in assay [1] (Day 21, 5 mg/kg) is 9.04 mm and 10.51 mm and 9.13 mm and 9.42 mm and 9.37 mm and 9.57 mm; in assay [1] (Day 25, 5 mg/kg) it was 10.58 mm and 11.04 mm and 9.93 mm and 9.56 mm and 9.94 mm and 10.28 mm; in assay [1] (Day 28, 5 mg/kg) it was 11.12 mm and 10.74 mm and 11.35 mm and 11.93 mm and 11.42 mm and 11.65 mm. For the same molecule, the “Tumor weight after 28 days” value in assay [1] (IgG4 (5 mg/kg), Ex. 2, per mouse 1-6, 5 mg/kg) is 0.779 grams and 0.769 grams and 0.739 grams and 0.863 grams and 0.852 grams and 0.649 grams. The tumor suppression rate entry in assay [1] (single anti-CD14-IgG4 5 mg/kg (Ex. 2), after 28 days) was “about 25%”.

B2: MPDDAD003: D6DD3D014-derived antibody with PTM site removed; VL amino acid nos. 34, 35: TS (antibody, V domains shown)
VH: QLQLQESGPGLVKPSETLSLTCTVSGGSISSDSAWNWIRQPPGKGLEWIGYISYSGSTSYNPSLKSRVTISRDTSKNQFSLKLSSVTAADTAVYYCVRGLRFAYWGQGTLVTVSS
VL: DIQLTQSPSSLSASVGDRVTITCRASESVDSYVTSFLHWYQQKPGKAPKLLIYRASNLQSGVPSRFSGSGSRTDFTLTISSLQPEDVATYYCQQSNEDPYTFGQGTKLEIK
For B2, in assay [2], the Koff amounted to 0.0026 s⁻¹ and the “kon (1:1 binding)” value came out at 1.29e+06 M⁻¹ s⁻¹. Further, in assay [2] (Biacore, B294801 antigen), the “affinity compared with the humanized antibody D6DD3D014” value is “approximately equivalent to the affinity of the humanized antibody D6DD3D014” and the “affinity compared with the murine antibody D6DD3D001” value is given as “within three times less than the affinity of the murine antibody D6DD3D001”.

B3: MPDDAD004: D6DD3D014-derived antibody with PTM site removed; VL amino acid nos. 34, 35: NA (antibody, V domains shown)
VH: B2 VH
VL: B2 VL with T34N, S35A
For the molecule B3, in assay [2], the Koff was found to be 0.0046 s⁻¹ and the “kon (1:1 binding)” value was 775000 M⁻¹ s⁻¹.

B4: MPDDAD001: D6DD3D014-derived antibody with PTM site removed; VL amino acid nos. 34, 35: DS (antibody, V domains shown)
VH: B2 VH
VL: B2 VL with T34D
As for B4, in assay [2], the Koff stood at 0.00633 s⁻¹ and the “kon (1:1 binding)” value was 847000 M⁻¹ s⁻¹.

B5: MPDDAD005: D6DD3D014-derived antibody with PTM site removed; VL amino acid nos. 34, 35: QS (antibody, V domains shown)
VH: B2 VH
VL: B2 VL with T34Q
As to B5, in assay [2], the Koff worked out at 0.00544 s⁻¹ and the “kon (1:1 binding)” value worked out at 1.11e+06 M⁻¹ s⁻¹.

B6: MPDDAD002: D6DD3D014-derived antibody with PTM site removed; VL amino acid nos. 34, 35: SS (antibody, V domains shown)
VH: B2 VH
VL: B2 VL with T34S
As for B6, in assay [2], the Koff amounted to 0.00362 s⁻¹ and the “kon (1:1 binding)” value stood at 1.29e+06 M⁻¹ s⁻¹.
